In patent publication US7803377B2, “Anti-DLL4 antibodies and methods using same” (Genentech, Inc., priority 2006, dated 2010):

B1: immobilized DLL4: immobilized C-terminal His-tagged human DLL4 (amino acids 1-404) used to activate Notch in HUVECs (protein)
chain: GSGVFQLQLQEFINERGVLASGRPCEPGCRTFFRVCLKHFQAVVSPGPCTFGTVSTPVLGTNSFAVRDDSSGGGRNPLQLPFNFTWPGTFSLIIEAWHAPGDDLRPEALPPDALISKIAIQGSLAVGQNWLLDEQTSTLTRLRYSYRVICSDNYYGDNCSRLCKKRNDHFGHYVCQPDGNLSCLPGWTGEYCQQPICLSGCHEQNGYCSKPAECLCRPGWQGRLCNECIPHNGCRHGTCSTPWQCTCDEGWGGLFCDQDLNYCTHHSPCKNGATCSNSGQRSYTCTCRPGYTGVDCELELSECDSNPCRNGGSCKDQEDGYHCLCPPGYYGLHCEHSTLSCADSPCFNGGSCRERNQGANYACECPPNFTGSNCEKKVD
modifications: left off: small tags and cut ends
B2: YW26.14: affinity matured anti-DLL4 antibody; HVR-H1/H2/H3 SEQ ID NO:2, 3, 9; HVR-L1/L2/L3 SEQ ID NO:10, 11, 14 (antibody, V domains shown)
VH: EVQLVESGGGLVQPGGSLRLSCAASGFSFRDNWISWVRQAPGKGLEWVGVINPNSGSTDYADSVKGRFTISADTSKNTAYLQMNSLRAEDTAVYYCARDNFGGYFDYWGQGTLVTVSS
VL: DIQMTQSPSSLSASVGDRVTITCRASQDVSTAVAWYQQKPGKAPKLLIYSASFLYSGVPSRFSGSGSGTDFTLTISSLQPEDFATYYCQQSVNGPATFGQGTKVEIK
B3: YW26.34: affinity matured anti-DLL4 antibody; HVR-H1/H2/H3 SEQ ID NO:1, 6, 9; HVR-L1/L2/L3 SEQ ID NO:10, 11, 16 (antibody, V domains shown)
VH: EVQLVESGGGLVQPGGSLRLSCAASGFTFTDNWISWVRQAPGKGLEWVGLINPTSGSTIYADSVKGRFTISADTSKNTAYLQMNSLRAEDTAVYYCARDNFGGYFDYWGQGTLVTVSS
VL: DIQMTQSPSSLSASVGDRVTITCRASQDVSTAVAWYQQKPGKAPKLLIYSASFLYSGVPSRFSGSGSGTDFTLTISSLQPEDFATYYCQQSYTGPSTFGQGTKVEIK

How the values were obtained:
[1] = test system: VEGFR2; assay: Real-time quantitative RT-PCR of VEGFR2 expression in HUVECs; type: cell-based, human; conditions: 2-D culture of HUVECs (36 hr)
Method: RNA extraction and Real-time quantitative RT-PCR. Extraction of total RNA from HUVECs in 2-D culture was done using RNeasy® Mini Kit (Qiagen) as per instructions of the manufacturer. To extract total RNA from HUVECs growing in fibrin gels, fibrin gels were treated with 10× trypsin-EDTA (Gibco) for 5 min to remove the top layer fibroblasts, followed by neutralization with 10% FBS in PBS. The gel clots were then removed from tissue culture wells and subjected to centrifugation (10K for 5 min) in microtubes to remove excessive fluid. The resulting gel “pellets” were lysed with lysis buffer (RNeasy® Mini Kit), and further processed as with HUVECs in 2-D culture. The quality of RNA was assessed using RNA 6000 Nano Chips and the Agilent 2100 Bioanalyzer (Agilent Technologies). Real-time quantitative RT-PCR reactions were done in triplicate using 7500 Real Time PCR System (Applied Biosystems). Human GAPDH was used as reference gene for normalization. The expression levels are expressed as the mean (±SEM) fold mRNA changes relative to control from 3 separate determinations. The forward and reverse primer and probe sequences for VEGFR2, TGFβ2 and GAPDH were as follows.
Therefore, while VEGF can act upstream of DLL4/Notch pathway, DLL4/Notch is capable of fine-tuning the response through negatively regulating VEGFR2 expression.

[2] = test system: HUVEC; assay: HUVEC proliferation on Notch activation by immobilized DLL4; type: cell-based, human; conditions: Notch activation by immobilized DLL4 protein
[3] = molecular target: T1, human Delta4 (ECD5.5) (Homo sapiens, UniProt Q9NR61); assay: Surface plasmon resonance (BIAcore-3000) binding affinity and kinetics; conditions: human DLL4-His injected over coupled antibody, 25° C.
T1 construct: DLL4-His (C-terminal His-tagged human DLL4, amino acid 1-404); His (C)
Method: (§1) To determine the binding affinity of the anti-DLL4 Mabs, surface plasmon resonance (SRP) measurement with a BIAcore™-3000 was used (BIAcore, Inc., Piscataway, N.J.). Briefly, carboxymethylated dextran biosensor chips (CM5, BIAcore Inc.) were activated with N-ethyl-N′-(3-dimethylaminopropyl)-carbodiimide hydrochloride (EDC) and N-hydroxysuccinimide (NHS) according to the supplier's instructions. Anti-DLL4 antibody was diluted with 10 mM sodium acetate, pH 4.8, into 5 μg/ml before injection at a flow rate of 5 μl/minute to achieve approximately 500 response units (RU) of coupled antibody. Next, IM ethanolamine was injected to block unreacted groups. For kinetics measurements, two-fold serial dilutions of either human or murine DLL4-His molecules (0.7 nM to 500 nM) were injected in PBS with 0.05% Tween™ 20 at 25° C. at a flow rate of 25 μl/min. Association rates (kon) and dissociation rates (koff) were calculated using a simple one-to-one Langmuir binding model (BIAcore Evaluation Software version 3.2). The equilibrium dissociation constant (Kd) was calculated as the ratio koff/kon.

[4] = molecular target: T2, murine Delta4 (ECD5.5) (Mus musculus, UniProt Q9JI71); assay: as above; conditions: murine DLL4-His injected over coupled antibody, 25° C.
T2 construct: murine Delta4 (ECD5.5); His
T2 sequence (Q9JI71 27-405 limits assumed): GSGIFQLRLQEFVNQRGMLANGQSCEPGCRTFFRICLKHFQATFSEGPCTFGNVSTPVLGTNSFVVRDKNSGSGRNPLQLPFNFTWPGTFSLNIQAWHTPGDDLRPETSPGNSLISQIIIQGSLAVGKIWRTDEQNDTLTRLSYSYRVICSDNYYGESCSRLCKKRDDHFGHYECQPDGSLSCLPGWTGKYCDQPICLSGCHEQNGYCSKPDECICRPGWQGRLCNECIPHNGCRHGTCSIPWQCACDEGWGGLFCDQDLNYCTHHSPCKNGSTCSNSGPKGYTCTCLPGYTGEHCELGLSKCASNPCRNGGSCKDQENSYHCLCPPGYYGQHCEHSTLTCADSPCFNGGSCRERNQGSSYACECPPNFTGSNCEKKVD
Method: as §1

| Molecule | VEGFR2 expression on Notch activation [1] | HUVEC proliferation / growth [2] | koff/10^−4 [3] | kon/10^5 [3] | koff10^−4 [4] | kon/10^5 [4] |
| --- | --- | --- | --- | --- | --- | --- |
| B1 | suppressed the expression of VEGFR2 | significant growth inhibition |  |  |  |  |
| B2 |  |  | 0.66 10^−4 | 1.8 10^5 | 0.73 10^−4 | 3.3 10^5 |
| B3 |  |  | 0.67 10^−4 | 1.9 10^5 | 0.65 10^−4 | 3.6 10^5 |
